In paper PMC3111228 (The Journal of neuroscience : the official journal of the …, 2011):

biological target: recombinant CaM (calmodulin) (UniProt P0DP23 1-149); assay: pull-down

binding result | Binder
binds | GST-mGluR1-Cprox with mGluR5 888-EKSTRGQHL-896 in place of 901-…-909 (domain or fragment) PERNVRSAFTTSDVVRMHVGDGKLPCRSNTFLNIFRRKKPGAGNANSNGKSVSWSEPGGEKSTRGQHLWQRLSVHVKTNETACNQTAVIKPLTKSYQGSGKSLTFSDASTKTLYNVEE
binds | GST-mGluR1 V909L (domain or fragment) PERNVRSAFTTSDVVRMHVGDGKLPCRSNTFLNIFRRKKPGAGNANSNGKSVSWSEPGGRQAPKGQHLWQRLSVHVKTNETACNQTAVIKPLTKSYQGSGKSLTFSDASTKTLYNVEE
binds | GST-mGluR5-Cprox with EKST exchanged (domain or fragment) PERNVRSAFTTSTVVRMHVGDGKSSSAASRSSSLVNLWKRRGSSGETLSSNGKSVTWAQNRQAPRGQHLWQRLSVHINKKENPNQTAVIKPFPKSTENRGPGAAAGGGSGPGVAGAG
